{
  "source": "patent US20250177547A1",
  "about": "“PSMA-STEAP1 DUAL VARIABLE DOMAIN IMMUNOGLOBLIN (DVD-Ig) MOLECULES AND DRUG CONJUGATES” (AbbVie Inc., priority 2023, published 2025)",
  "molecules": {"B1": {"name": "STEAP1-PSMA-(vcMMAE) Clone 15: PSMA-STEAP1 DVD-Ig clone 15 conjugated with monomethyl auristatin E (MMAE) (conjugate)", "heavy": "EVQLVESGGGVVQPGRSLRLSCVASGFPFNNYWMTWIRQAPGKGLEWIASITITGGTTYYPGSVKGRFTISRDNSKSTLYLQMNSLRAEDTAVYYCTRERYSTEYYPYYWYFDFWGQGTMVTVSSGGGGSGGGGSEVQLVQSGAEVKKPGSSVKVSCKASGYTFTDYYMNWVKQAPGKGLEWIGLINPSNGGTNYNQKFRDKATLTVDKSTSTAYMELSSLRSEDTAVYYCARRAQATSGDYWGQGTTVTVSS", "light": "DIQMTQSPSSLSASVGDRVTITCRTSQDIGNYLRWFQQKPGKSPKLMIYDAINLAAGVPSRFSGSGSGTDYTLTISSLQPEDVATYYCLQHNEYPYTFGQGTKLEIKGGSGGGGSGDIQMTQSPSSLSASVGDRVTITCHASQNINVWLSWYQQKPGKAPKLLIYKASNLHTGVPSRFSGSGSGTDFTFTISSLQPEDIATYYCQQGQTYPLTFGGGTKVEIK", "modifications": "left off: a dimerising Fc or GST; large carriers"}},
  "key": {"[1]": {"tested_on": "LNCaP.FGC xenograft", "experiment": "LNCaP.FGC xenograft study of MMAE conjugates", "type": "in vivo, mouse", "procedure": "(§1) Male NSG mice were obtained from Jackson Laboratories (Bar Harbor, ME) for both LNCaP.FGC and 22Rv1 xenograft studies. Mice were housed by treatment group at seven to eight mice per cage. Food and water were available ad libitum. Mice were acclimated to the animal facilities for a period of at least one week prior to commencement of experiments. Animals were tested in the light phase of a 12-hour light:12-hour dark schedule (lights on at 06:00 hours).\n(§2) To generate xenografts from LNCaP.FGC (ATCC) and from 22Rv1 (ATCC) cell lines, 5×10^6 viable LNCaP.FGC and 22Rv1 cells were inoculated subcutaneously into the right flank of male NSG mice, respectively. The injection volume was 0.1 mL and composed of a 1:1 mixture with Matrigel (BD, Franklin Lakes, NJ). Measurements of the length (L) and width (W) of the tumor were taken via electronic caliper and the tumor volume was calculated according to the following equation: V=L×W^2/2.\nMice were assigned to treatment groups so that the mean tumor volumes within groups were approximately 175-250 mm^3. An anti-PSMA-MMAE ADC at Dose-1 1×, an anti-STEAP1-MMAE ADC at Dose-1 1×, and various of the PSMA/STEAP-1 DVD-Igs conjugated with MMAE described above at Dose-1 1.33×(Clone 13 was administered at Dose-1 0.87×due to limited compound availability) were administered within 24-48 hours of assignment to treatment groups based on tumor volumes. Tumor volumes were estimated two times weekly after dosing, with study groups body weights taken at the time of tumor measurements. Mice were euthanized (1) when tumor volume reached 2,000 mm^3, (2) when general efficacy parameters were confidently determined, or (3) when necessitated by other animal health issues.\nParameters of Efficacy were determined as follows:\nTGI (tumor growth inhibition)=1−(mean tumor volume of treatment group/mean tumor volume of treatment control group)×100 based on measurements on day of vehicle endpoint. P values are derived from Student's T test comparison of treatment group vs. vehicle control group.\nTGD (tumor growth delay)=(T−C)/C×100, where T is the median time to endpoint of treatment group and C is the median time to endpoint of treatment control group. P values are derived from Kaplan Meier log-rank comparison of treatment group vs. vehicle control group."}, "[2]": {"tested_on": "22Rv1 xenograft", "experiment": "22Rv1 xenograft study of MMAE conjugates", "type": "in vivo, mouse", "conditions": "FIG. 4A", "procedure": "as §1, §2\nMice were assigned to treatment groups so that the mean tumor volumes within groups were approximately 175-250 mm^3. […] Mice were euthanized (1) when tumor volume reached 2,000 mm^3, (2) when general efficacy parameters were confidently determined, or (3) when necessitated by other animal health issues."}, "[3]": {"tested_on": "HEK293-PSMA cells", "experiment": "In vitro cytotoxicity of MMAE conjugates (CellTiter-Glo), HEK293-PSMA", "conditions": "FIG. 3B/3E"}},
  "note": "Marks after values point to notes of the source that are not given here.",
  "data": [
    {"molecule": "B1", "values": [
      {"measurement": "activity in LNCaP.FGC xenograft model relative to monospecific ADCs", "setting": "[1]; FIG. 4B", "value": "comparable or superior activity relative to monospecific ADCs"},
      {"measurement": "PR (%) partial response", "setting": "[1]; LNCaP.FGC xenograft, IP, QD x 1, >25 mm^3 but less than one-half of volume at onset", "value": "38* %"},
      {"measurement": "TR (%) total responders", "setting": "[1]; LNCaP.FGC xenograft, IP, QD x 1, sum of CR and PR", "value": "75*** %"},
      {"measurement": "CR (%) complete response", "setting": "[1]; LNCaP.FGC xenograft, IP, QD x 1, tumor burden ≤25 mm^3 for at least three consecutive measurements", "value": 38, "unit": "%"},
      {"measurement": "TGI (%)", "setting": "[1]; LNCaP.FGC xenograft, male NSG mice, IP, QD x 1, day of comparison d 63 post inoculation", "value": "88*** %"},
      {"measurement": "TGD (%)", "setting": "[1]; LNCaP.FGC xenograft, male NSG mice, IP, QD x 1, tumor volume endpoint 1000 mm^3", "value": "229*** %"},
      {"measurement": "activity in 22Rv1 xenograft model relative to monospecific ADCs", "setting": "[2]", "value": "comparable or superior activity relative to monospecific ADCs"},
      {"measurement": "cytotoxic activity in HEK293-PSMA cells", "setting": "[3]", "value": "weaker than PSMA-MMAE"}
    ]}
  ]
}
